Biological target: Mesothelin (MSLN) expressed on target cells (human) (UniProt Q13421)
Assay: cell-based or functional assay

m912 benchmark MSLN CAR (scFv)
EC50 (functional sensitivity), Jurkat NFAT-luciferase, MSLN molecules/cell on HEK293 cells (molecules/cell): 80000
